Data as given in patent publication US20220213456.

Key:
Assay in all cases: cleavage_in_vitro
[1] = system: T1, OMNI-46 (Carnobacterium funditum); conditions: TXTL; PAM YAAAR
T1 sequence: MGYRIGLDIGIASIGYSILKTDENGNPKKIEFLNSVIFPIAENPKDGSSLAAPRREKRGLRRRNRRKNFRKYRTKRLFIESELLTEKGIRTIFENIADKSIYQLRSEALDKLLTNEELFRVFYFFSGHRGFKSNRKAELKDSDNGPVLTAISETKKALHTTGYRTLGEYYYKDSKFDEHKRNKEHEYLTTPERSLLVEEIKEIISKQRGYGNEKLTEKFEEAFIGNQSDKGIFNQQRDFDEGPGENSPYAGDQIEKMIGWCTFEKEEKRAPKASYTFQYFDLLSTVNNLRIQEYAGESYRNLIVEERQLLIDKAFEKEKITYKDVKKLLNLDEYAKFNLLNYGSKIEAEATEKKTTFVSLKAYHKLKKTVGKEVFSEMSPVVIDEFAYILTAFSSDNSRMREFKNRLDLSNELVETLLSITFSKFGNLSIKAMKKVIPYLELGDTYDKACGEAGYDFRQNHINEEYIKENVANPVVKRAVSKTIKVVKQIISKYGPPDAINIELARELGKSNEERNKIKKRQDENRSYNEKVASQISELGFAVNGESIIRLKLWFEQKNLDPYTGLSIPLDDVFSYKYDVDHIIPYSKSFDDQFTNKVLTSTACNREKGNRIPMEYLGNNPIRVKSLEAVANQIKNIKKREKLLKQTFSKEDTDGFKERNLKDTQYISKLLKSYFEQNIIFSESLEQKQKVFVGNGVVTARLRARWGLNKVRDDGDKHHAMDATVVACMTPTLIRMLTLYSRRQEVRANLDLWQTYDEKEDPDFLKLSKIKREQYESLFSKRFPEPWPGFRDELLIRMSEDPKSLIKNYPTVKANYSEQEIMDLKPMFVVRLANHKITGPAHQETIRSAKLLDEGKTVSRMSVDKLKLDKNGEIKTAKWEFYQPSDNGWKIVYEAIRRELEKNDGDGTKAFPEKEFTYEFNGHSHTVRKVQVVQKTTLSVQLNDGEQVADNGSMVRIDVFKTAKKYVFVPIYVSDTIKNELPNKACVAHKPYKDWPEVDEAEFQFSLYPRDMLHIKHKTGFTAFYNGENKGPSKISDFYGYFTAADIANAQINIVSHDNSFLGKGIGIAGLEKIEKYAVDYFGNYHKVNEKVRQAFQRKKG

[2] = system: T2, OMNI-42 (Caviibacter abscessus); conditions: TXTL; PAM NNGMM (specific NTGCC); FIG. 3F states V2, table states V1
T2 sequence: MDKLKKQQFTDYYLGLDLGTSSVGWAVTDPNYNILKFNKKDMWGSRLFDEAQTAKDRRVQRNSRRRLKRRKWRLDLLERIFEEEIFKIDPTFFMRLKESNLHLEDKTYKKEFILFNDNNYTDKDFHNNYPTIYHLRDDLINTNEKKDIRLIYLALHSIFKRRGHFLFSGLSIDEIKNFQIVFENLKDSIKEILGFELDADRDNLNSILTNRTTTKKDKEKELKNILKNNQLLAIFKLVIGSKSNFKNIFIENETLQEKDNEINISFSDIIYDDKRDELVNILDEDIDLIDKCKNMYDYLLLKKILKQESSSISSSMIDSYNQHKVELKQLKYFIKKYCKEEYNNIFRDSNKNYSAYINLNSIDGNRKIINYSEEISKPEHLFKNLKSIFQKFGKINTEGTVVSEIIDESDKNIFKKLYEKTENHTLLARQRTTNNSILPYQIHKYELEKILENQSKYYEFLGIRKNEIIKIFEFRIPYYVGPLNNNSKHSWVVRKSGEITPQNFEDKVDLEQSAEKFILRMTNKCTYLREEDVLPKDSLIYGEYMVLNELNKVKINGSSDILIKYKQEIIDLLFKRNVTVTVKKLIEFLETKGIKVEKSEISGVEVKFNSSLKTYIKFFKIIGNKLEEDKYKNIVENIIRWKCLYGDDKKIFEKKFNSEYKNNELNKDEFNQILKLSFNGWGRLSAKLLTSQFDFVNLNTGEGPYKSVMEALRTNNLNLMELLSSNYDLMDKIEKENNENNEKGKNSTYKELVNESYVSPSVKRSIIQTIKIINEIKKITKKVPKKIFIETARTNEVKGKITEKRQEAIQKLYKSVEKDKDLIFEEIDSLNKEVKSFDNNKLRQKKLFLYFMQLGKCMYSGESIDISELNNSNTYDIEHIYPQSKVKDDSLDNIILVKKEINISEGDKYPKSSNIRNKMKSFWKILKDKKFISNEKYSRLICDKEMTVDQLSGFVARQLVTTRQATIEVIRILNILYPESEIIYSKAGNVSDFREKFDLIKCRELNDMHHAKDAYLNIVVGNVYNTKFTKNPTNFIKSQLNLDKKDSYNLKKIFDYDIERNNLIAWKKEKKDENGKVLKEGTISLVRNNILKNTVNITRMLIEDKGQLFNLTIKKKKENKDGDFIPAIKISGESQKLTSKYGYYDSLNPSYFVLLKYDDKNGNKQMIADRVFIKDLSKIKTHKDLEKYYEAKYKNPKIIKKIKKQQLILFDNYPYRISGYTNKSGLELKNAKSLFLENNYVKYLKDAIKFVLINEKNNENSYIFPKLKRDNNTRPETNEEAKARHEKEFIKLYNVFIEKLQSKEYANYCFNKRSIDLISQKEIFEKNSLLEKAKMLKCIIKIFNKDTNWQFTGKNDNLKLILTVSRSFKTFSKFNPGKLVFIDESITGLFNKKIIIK

[3] = system: T3, OMNI-43 (Arcobacter sp. SM1702); conditions: TXTL; PAM YAAAR; V1, V2 tested
T3 sequence: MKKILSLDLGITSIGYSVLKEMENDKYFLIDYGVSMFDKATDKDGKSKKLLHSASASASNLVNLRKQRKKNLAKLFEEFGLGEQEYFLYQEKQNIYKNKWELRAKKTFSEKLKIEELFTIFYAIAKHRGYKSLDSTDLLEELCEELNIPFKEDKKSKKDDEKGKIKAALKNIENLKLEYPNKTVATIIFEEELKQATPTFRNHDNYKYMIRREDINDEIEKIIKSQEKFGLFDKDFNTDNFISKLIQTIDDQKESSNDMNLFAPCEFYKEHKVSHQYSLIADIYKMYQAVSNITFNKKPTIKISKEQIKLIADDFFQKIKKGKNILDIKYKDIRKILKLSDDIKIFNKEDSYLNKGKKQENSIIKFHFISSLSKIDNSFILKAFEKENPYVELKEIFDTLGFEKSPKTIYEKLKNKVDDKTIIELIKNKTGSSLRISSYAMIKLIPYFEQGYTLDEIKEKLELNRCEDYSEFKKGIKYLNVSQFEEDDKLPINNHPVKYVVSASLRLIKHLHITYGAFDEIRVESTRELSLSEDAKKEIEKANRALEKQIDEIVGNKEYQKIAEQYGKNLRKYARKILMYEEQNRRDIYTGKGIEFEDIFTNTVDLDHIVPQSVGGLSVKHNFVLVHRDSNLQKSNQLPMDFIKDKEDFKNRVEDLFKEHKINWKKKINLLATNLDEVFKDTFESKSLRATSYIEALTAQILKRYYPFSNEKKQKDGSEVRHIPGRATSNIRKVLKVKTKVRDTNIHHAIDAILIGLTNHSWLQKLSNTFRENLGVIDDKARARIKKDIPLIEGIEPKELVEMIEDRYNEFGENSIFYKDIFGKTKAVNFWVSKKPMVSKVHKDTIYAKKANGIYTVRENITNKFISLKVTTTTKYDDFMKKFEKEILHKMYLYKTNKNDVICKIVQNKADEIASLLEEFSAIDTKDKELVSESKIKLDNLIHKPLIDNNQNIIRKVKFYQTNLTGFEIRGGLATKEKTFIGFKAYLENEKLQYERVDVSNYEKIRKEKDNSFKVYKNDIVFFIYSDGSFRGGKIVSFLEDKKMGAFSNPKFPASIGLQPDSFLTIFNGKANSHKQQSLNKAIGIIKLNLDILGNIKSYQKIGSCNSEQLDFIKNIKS

[4] = system: T4, OMNI-44 (Arcobacter mytili); conditions: TXTL; PAM NRHAA; FIG. 3H states V2, table states V3
T4 sequence: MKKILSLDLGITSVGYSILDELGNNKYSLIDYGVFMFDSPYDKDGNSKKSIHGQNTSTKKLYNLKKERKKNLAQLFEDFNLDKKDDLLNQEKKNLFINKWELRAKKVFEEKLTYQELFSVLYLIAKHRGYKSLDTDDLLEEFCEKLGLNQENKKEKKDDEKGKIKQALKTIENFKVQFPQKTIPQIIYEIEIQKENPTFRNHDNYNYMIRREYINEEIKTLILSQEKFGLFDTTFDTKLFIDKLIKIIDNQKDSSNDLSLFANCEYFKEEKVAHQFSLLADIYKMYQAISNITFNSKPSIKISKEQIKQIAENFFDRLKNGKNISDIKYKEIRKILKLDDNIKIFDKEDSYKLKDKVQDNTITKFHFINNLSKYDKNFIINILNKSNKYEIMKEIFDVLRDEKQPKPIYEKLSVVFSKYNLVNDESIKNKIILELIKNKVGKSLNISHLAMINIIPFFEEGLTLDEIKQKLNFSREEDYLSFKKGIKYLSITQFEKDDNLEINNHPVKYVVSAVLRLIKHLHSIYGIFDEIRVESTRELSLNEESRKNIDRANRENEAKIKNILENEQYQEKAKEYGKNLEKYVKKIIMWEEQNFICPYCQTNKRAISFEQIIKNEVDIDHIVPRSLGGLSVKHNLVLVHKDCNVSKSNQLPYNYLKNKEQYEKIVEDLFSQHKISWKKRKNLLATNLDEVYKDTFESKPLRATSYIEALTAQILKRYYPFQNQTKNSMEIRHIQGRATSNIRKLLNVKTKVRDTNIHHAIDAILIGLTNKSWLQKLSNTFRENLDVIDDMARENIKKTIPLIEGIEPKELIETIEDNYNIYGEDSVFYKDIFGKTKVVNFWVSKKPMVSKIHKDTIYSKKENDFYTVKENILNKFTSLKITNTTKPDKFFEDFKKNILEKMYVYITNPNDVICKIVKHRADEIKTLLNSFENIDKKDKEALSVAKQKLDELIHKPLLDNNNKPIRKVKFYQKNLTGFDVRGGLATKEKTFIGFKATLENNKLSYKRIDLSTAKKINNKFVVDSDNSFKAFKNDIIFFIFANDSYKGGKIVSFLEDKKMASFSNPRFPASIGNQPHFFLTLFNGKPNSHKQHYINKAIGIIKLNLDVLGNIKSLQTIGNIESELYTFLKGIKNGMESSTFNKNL

“GGAAGAGCAGAGCCUUGGUCUCGCUAUACGUUCCUUACAAAAUCGGGAAACCGACUUUGCAAGGAACGUAUAGUAAAGGGAGUGCUCUGCACUCUCCUGUAAAGCACUAACCCCAUUUUCUUCGGAGAAUGGGGUUAUCUUUUU / GGAAGAGCAGAGCCTTGGTCTCNNNNNNNN / NNNNNNNNGAGACCAAGGCTCTGCTCTTCC [OMNI-46 T2 sgRNA V2 ; pbPOS T2 protospacer 8N PAM library]” was tested, and the activity (1-depletion score) [1] was 0.95.
“GGAAGAGCAGAGCCUUGGUCUCGUUUAAGAGUUAUGUAAGAAAUUACAUAACGAGUUUAAAUAAAAAUUUAUUGAAAUCGUCAAAUUAUUUUUGACUAGCCUCUUUUUGAAGAGGUUUUUUU / GGAAGAGCAGAGCCTTGGTCTCNNNNNNNN / NNNNNNNNGAGACCAAGGCTCTGCTCTTCC [OMNI-42 T2 sgRNA V2 ; pbPOS T2 protospacer 8N PAM library]” showed an activity (1-depletion score) [2] of 0.91.
In the case of “GGAAGAGCAGAGCCUUGGUCUCGUUUUAAUACCCCUACAAACUGGAAACAGUUUAAUAGGGGUAUUAAACUAAGGUUGCUAUUUUAGCAACUGACUUUAGGCAGUGGUUUCGACCACUUGCCCUUUUUU / GGAAGAGCAGAGCCTTGGTCTCNNNNNNNN / NNNNNNNNGAGACCAAGGCTCTGCTCTTCC [OMNI-43 T2 sgRNA V1 ; pbPOS T2 protospacer 8N PAM library]”, the activity (1-depletion score) [3] is reported as 0.91.
Work on “GGAAGAGCAGAGCCUUGGUCUCGUUUUAAUACCCCUAUAAACUACUAGAAAUAGUAGUUUAAUAGGGGUAUUAAACUAAGACUACUUUAAUAGUAGUUGAUUUUAGGAGAUAGUUUUUCUAUCUCCCUUUUU / GGAAGAGCAGAGCCTTGGTCTCNNNNNNNN / NNNNNNNNGAGACCAAGGCTCTGCTCTTCC [OMNI-44 T2 sgRNA V2 ; pbPOS T2 protospacer 8N PAM library]” yielded an activity (1-depletion score) [4] of 0.96.
